The values that follow come from patent US20050136043A1, “TGFbeta signaling inhibitors” (Ludwig Institute for Cancer Research, priority 2003, published 2005).

Format in all cases: biochemical
The target of one test is T1, ALK-1 (Homo sapiens, UniProt P37023).
T1 construct: made in house; host or cells: COS-7 cells (transfected, immunoprecipitated)
Nature of the test: In vitro kinase assay (autophosphorylation) of receptor expressed in COS-7 cells. Conditions: 10 μM peptide, FIG. 5. Here is the method: (§1) For in vitro kinase assay of type I and type II TGFβ family receptors, p38α and SAPKα2 kinases, COS-7 cells were transfected with the kinase expression vectors or the control empty pcDNA3 vector using the DEAE-dextran method. Proteins were extracted in a lysis buffer (50 mM Tris-HCl, pH 7.5, 50 mM NaCl, 1% NP-40, 10 μg/mL aprotinin, 0.1 mM PMSF). HA-tagged proteins (ALK1 to ALK7, p38R, SAPKR2) were immunoprecipitated with anti-HA antibody (12CA5; Roche); His6-tagged proteins (type II receptors) were precipitated with Ni-NTA agarose (Qiagen). The precipitates were washed in extraction buffer, with 20 mM imidazole for Ni-NTA agarose-precipitated proteins, and two times with kinase buffer (20 mM HEPES, pH 7.4, 10 mM MgCl2, 2 mM MnCl2, 1 mM DTT). The kinase reaction was initiated by addition of 20 μL of kinase buffer containing 0.5 μCi of [γ-32P]ATP, 5.0 μM ATP, and inhibitory peptides at a final concentration of 10 μM. The reaction was performed at 22° C. for 20 min and terminated by addition of SDS-containing sample buffer and boiling for 5 min. The reaction products were analyzed by SDS-PAGE and exposure in a Fuji X2000 phosphorimager. Equal loading was controlled by immunoblotting aliquots of the samples with a HA probe (Y-11; Santa Cruz) or anti-His antibody (Qiagen).
(§2) To evaluate whether the substrate-mimicking peptides affect kinases of type I and type II reptors of the TGFβ family, we studied the influence of peptides on authophosphorylation of all known mammalian type I receptors [ALK-1, ActR-I (ALK-2), BMPR-IA (ALK-3), ActR-IB (ALK-4), TβR-I (ALK-5), BMPR-IB (ALK-6), and ALK-7], TβRII, ActR-II, BMPR-II, p38R, and SAPKR2 (FIG. 5). The kinases were expressed in COS-7 cells and purified by using specific anti-tag antibodies or Ni-NTA agarose, and kinase activity was tested in the presence of peptides.

For a further test, the target named is T2, BMPR-II (Homo sapiens, UniProt Q13873).
T2 construct: made in house; host or cells: COS-7 cells (transfected, Ni-NTA precipitated)
T2 sequence (Q13873 27-1038): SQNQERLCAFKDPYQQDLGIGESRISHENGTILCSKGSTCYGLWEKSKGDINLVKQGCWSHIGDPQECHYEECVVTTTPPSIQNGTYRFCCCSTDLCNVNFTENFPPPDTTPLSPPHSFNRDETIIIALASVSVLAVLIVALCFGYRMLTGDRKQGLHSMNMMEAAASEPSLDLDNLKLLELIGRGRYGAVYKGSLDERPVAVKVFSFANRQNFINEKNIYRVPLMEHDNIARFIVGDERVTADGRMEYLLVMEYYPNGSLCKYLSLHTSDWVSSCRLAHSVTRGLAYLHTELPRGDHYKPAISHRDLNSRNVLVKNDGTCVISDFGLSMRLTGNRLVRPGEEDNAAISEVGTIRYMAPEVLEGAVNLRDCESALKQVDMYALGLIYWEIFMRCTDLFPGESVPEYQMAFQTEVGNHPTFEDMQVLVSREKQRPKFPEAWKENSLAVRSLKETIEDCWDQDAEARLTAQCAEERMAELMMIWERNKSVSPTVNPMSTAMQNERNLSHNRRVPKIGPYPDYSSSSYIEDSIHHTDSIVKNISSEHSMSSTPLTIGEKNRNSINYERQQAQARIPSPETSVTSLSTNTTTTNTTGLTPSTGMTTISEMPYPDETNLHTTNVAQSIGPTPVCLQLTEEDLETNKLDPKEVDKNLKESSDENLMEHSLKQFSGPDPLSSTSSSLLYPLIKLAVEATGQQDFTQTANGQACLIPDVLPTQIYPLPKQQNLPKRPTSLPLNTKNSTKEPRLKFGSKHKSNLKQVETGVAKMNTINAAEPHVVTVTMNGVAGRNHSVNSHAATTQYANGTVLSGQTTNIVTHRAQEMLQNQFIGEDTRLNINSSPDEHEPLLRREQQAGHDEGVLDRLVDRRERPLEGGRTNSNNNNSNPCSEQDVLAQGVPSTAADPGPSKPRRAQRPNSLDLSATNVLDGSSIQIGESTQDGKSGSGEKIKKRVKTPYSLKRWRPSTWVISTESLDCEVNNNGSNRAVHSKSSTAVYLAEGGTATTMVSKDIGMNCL
The test is described as above. Conditions: 10 μM peptide, FIG. 5. The procedure:
as §1, §2

A further test has as its target T3, ActR-II (Homo sapiens, UniProt P27037).
T3 construct: made in house; host or cells: COS-7 cells (transfected, Ni-NTA precipitated)
Described as above. Conditions: 10 μM peptide, FIG. 5. The procedure: as §1, §2

The target in test [1] is T4, constitutively active TβR-I (Homo sapiens, UniProt P36897, T204D).
T4 construct: made in house; host or cells: Mv1Lu cells (expressed, immunoprecipitated)
T4 sequence (P36897 34-503 T204D): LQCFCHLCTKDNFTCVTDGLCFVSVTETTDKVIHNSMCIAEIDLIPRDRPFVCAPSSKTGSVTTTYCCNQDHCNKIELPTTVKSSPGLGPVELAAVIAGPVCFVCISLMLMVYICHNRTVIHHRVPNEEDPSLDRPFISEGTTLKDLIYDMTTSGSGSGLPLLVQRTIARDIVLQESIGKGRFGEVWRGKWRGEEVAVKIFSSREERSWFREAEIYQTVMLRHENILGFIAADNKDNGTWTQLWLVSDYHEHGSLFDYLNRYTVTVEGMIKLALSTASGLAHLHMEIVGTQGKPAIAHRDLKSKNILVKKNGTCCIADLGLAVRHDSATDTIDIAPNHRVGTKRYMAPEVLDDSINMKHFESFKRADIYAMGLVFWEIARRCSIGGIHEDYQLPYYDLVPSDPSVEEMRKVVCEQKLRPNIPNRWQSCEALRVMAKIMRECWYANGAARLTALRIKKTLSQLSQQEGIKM
Put plainly: In vitro kinase assay with immunoprecipitated constitutively active TβR-I expressed in Mv1Lu cells. As to conditions: immunoprecipitated from Mv1Lu cells, data not shown.

A further test has as its target p38R (Homo sapiens, UniProt Q16539). Nature of the test: In vitro kinase assay of kinase expressed in COS-7 cells. Conditions: 10 μM peptide, FIG. 5. The procedure:
as §1, §2

A further test deals with SAPKR2 (Homo sapiens, UniProt P45984). The test is described as above. Conditions: 10 μM peptide, FIG. 5. Here is the method:
as §1, §2

p38R, sequence (Q16539 whole entry): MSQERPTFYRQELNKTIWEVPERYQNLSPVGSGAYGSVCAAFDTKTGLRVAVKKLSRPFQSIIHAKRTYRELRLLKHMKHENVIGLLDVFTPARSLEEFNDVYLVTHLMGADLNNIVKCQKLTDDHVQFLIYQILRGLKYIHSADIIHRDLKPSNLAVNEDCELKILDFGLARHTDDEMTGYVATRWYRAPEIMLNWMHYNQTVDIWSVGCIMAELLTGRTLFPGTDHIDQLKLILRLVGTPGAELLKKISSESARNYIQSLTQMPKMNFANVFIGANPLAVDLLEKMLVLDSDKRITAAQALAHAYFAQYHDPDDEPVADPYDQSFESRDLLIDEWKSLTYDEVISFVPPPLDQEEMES
T1 sequence (P37023 22-503, species assumed): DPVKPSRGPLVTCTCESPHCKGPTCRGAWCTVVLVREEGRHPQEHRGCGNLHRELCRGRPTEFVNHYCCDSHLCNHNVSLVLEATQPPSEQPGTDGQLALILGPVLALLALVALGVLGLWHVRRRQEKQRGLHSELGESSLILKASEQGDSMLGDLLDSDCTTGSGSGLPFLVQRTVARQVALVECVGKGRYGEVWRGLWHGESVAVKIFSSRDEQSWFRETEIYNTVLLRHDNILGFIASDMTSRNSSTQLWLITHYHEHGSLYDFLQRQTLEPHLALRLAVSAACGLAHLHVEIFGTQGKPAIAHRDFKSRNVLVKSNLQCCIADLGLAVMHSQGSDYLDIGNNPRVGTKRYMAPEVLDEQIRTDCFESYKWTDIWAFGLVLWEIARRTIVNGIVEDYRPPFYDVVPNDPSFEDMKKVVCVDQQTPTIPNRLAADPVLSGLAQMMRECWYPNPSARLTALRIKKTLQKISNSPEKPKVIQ
T3 sequence (P27037 20-513): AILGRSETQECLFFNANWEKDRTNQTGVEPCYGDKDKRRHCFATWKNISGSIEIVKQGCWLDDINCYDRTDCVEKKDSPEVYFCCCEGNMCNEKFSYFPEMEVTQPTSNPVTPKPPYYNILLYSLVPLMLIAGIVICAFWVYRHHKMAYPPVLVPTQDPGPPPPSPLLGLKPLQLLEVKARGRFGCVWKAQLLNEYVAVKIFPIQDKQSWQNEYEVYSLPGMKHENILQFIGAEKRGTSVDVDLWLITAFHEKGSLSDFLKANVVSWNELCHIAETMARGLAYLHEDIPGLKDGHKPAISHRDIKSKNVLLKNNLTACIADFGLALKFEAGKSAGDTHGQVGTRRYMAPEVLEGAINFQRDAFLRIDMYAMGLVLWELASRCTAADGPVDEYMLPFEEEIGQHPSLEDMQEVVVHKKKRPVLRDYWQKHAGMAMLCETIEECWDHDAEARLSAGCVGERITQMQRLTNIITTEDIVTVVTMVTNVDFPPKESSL

Consider “RQIKIWFQNRRMKWKKTQMGSPSVRCSAMA (listed as Homo sapiens) [antp-Sm2A]”, for which, in the test with ALK-1, the “Effect on ALK-1 kinase” value is listed as “without any effect”. Besides, the “Effect on BMPR-II kinase” value with BMPR-II is “without any effect”. Also, in the test with ActR-II, the “Effect on ActR-II kinase” value is “without any effect”. The “Inhibition of autophosphorylation of TβR-I” value in test [1] is “inhibited autophosphorylation”. The “Effect on p38R kinase” value with p38R is recorded as “without any effect”. Moreover, in the test with SAPKR2, the “Effect on SAPKR2 kinase” value is listed as “without any effect”.
As for “RQIKIWFQNRRMKWKKTQMGSPSVRCSSMS (listed as Homo sapiens) [antp-Sm2S, penetratin fused to the C-terminus of wild-type Smad2]”, the “Effect on ALK-1 kinase” value in the test with ALK-1 was “without any effect”. In the test with BMPR-II, the “Effect on BMPR-II kinase” value was “without any effect”. The “Effect on ActR-II kinase” value in the test with ActR-II was “without any effect”. Besides, in test [1], the “Inhibition of autophosphorylation of TβR-I” value was “inhibited autophosphorylation”. Further, the “Effect on p38R kinase” value in the test with p38R is recorded as “without any effect”. The “Effect on SAPKR2 kinase” value with SAPKR2 was “without any effect”.
